From patent publication US20060241051A1 (Takeda / Millennium, published 2006) come the findings set out here.

Read-outs that look alike come from different tables or passages of the source. Numbered stars: 1 amine (or outer) side, 2 acyl side, 3 side chain; on linkers, the order of the positions; unused ones are H or OH. Square brackets hold non-standard residues; d marks the D form. Ends that are not written are not given here. * marks the point of attachment. Ala(2-Qui) = 2-quinolylalanine, O=C([C@H](Cc1ccc2ccccc2n1)N[*:1])[*:2]; Phe(4-F) = N[C@@H](Cc1ccc(F)cc1)C(=O)O; Arg(Me) = CNC(=N)NCCC[C@H](N)C(=O)O; Fmoc = O=C(OCC1c2ccccc2-c2ccccc21)*; Lys(Me2) = CN(C)CCCC[C@H](N)C(=O)O; 4Pal = N[C@@H](Cc1ccncc1)C(=O)O; d3Pal = N[C@H](Cc1cccnc1)C(=O)O; d4Pal = N[C@H](Cc1ccncc1)C(=O)O; Cha = N[C@@H](CC1CCCCC1)C(=O)O; Orn = NCCC[C@H](N)C(=O)O; Boc = CC(C)(C)OC(=O)*; azaGly = NNC(=O)O

Test [1] has as its target T1, human OT7T175 (metastin receptor) (human, UniProt Q969F8 1-398). The test is described as follows: cell-based or functional assay.
Test [2] has as its target T1, human OT7T175 (metastin receptor). In words: FMAT competition with Cy-5-labeled metastin (40-54), hOT7T175-expressed CHO cells.
Test [3] concerns the target human OT7T175 (metastin receptor) (human) (UniProt Q969F8). The test is described as follows: cell-based or functional assay.
Test [4] has as its target T1, human OT7T175 (metastin receptor). In words: cell-based or functional assay. This is another data set of the same source.

T1 sequence (Q969F8 whole entry L364H): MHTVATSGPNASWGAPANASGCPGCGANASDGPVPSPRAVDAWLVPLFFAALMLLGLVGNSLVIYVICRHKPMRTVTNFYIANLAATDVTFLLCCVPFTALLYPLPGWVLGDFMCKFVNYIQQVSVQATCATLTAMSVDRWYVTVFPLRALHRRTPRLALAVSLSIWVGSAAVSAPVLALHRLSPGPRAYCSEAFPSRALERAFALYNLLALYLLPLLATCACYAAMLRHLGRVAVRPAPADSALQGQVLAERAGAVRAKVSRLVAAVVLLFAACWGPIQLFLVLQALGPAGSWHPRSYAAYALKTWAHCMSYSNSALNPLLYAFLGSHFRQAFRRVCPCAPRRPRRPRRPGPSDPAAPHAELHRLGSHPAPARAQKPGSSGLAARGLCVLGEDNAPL
Chain of human OT7T175 (metastin receptor) (human) (Q969F8 whole entry L364H): as above

B1: Compound No. 317: [D-Tyr1,D-Asn2,Pya(4) 3,AzaGly7,Arg(Me)9,Phe(4F)10]MS10 (peptide)
peptide: [dY][dN][4Pal]NSF[azaGly]L[Arg(Me)][Phe(4-F)]-NH2
modifications: N-terminus assumed
SMILES: CNC(=N)NCCC[C@H](NC(=O)[C@H](CC(C)C)NC(=O)NNC(=O)[C@H](Cc1ccccc1)NC(=O)[C@H](CO)NC(=O)[C@H](CC(N)=O)NC(=O)[C@H](Cc1ccncc1)NC(=O)[C@@H](CC(N)=O)NC(=O)[C@H](N)Cc1ccc(O)cc1)C(=O)N[C@@H](Cc1ccc(F)cc1)C(N)=O
For B1, the “intracellular Ca ion level-increasing activity (FLIPR)” value in test [1] was 1 specific activity to metastin (1-54). In test [2], this molecule returned an IC50 of 2.1 nM. SNWNSFGLRF-NH2 [Compound No. 74: [Ser1]MS10] showed an intracellular Ca ion level-increasing activity (FLIPR) (specific activity to metastin (1-54)) in test [3] of 1. Y[dN][4Pal]NSF[azaGly]L[Arg(Me)]F-NH2 [Compound No. 304: [D-Asn2,Pya(4) 3,AzaGly7,Arg(Me)9]MS10]: the “intracellular Ca ion level-increasing activity (FLIPR)” value in test [1] is 3 specific activity to metastin (1-54). Besides, the IC50 in test [2] was 5 nM. YNWNSFGLRX (Hph10; C-terminal amide) [Compound No. 79: [Hph10]MS10] returned an intracellular Ca ion level-increasing activity (FLIPR) (specific activity to metastin (1-54)) in test [3] of 1. On the same count and under the same terms, as for YNWNSXGLRF (D-Tyr1; Cha6; Arg(Me)9; C-terminal amide) [Compound No. 172: [D-Tyr1,Cha6,Arg(Me)9]MS10], the figure is 1.

B2: Compound No. 291: [D-Pya(3)1,D-Tyr2,Cha3,AzaGly7,Arg(Me)9]MS10 (peptide)
peptide: [d3Pal][dY][Cha]NSF[azaGly]L[Arg(Me)]F-NH2
modifications: N-terminus assumed
SMILES: CNC(=N)NCCC[C@H](NC(=O)[C@H](CC(C)C)NC(=O)NNC(=O)[C@H](Cc1ccccc1)NC(=O)[C@H](CO)NC(=O)[C@H](CC(N)=O)NC(=O)[C@H](CC1CCCCC1)NC(=O)[C@@H](Cc1ccc(O)cc1)NC(=O)[C@H](N)Cc1cccnc1)C(=O)N[C@@H](Cc1ccccc1)C(N)=O
Regarding B2, the “intracellular Ca ion level-increasing activity (FLIPR)” value in test [1] is 2 specific activity to metastin (1-54). For the same molecule, the IC50 in test [2] is 0.41 nM. Regarding YNWNSFGLRW-NH2 [Compound No. 134: [Trp10]MS10], in test [4], the “intracellular Ca ion level-increasing activity (FLIPR)” value is 30 specific activity to metastin (1-54). Moreover, the IC50 in test [2] turned out to be 110 nM. With [dY][dN]TNSF[azaGly]L[Arg(Me)][Phe(4-F)]-NH2 [Compound No. 316: [D-Tyr1,D-Asn2,Thr3,AzaGly7,Arg(Me)9,Phe(4F)10]MS10], the “intracellular Ca ion level-increasing activity (FLIPR)” value in test [1] was 1 specific activity to metastin (1-54). In test [2], the IC50 amounted to 26 nM. As to [dY]NWNTF[azaGly]L[Arg(Me)]F-NH2 [Compound No. 297: [D-Tyr1,Thr5,AzaGly7,Arg(Me)9]MS10], in test [1], the “intracellular Ca ion level-increasing activity (FLIPR)” value was 1 specific activity to metastin (1-54). The IC50 in test [2] amounted to 0.93 nM.

Consider [dY][dN]WNTF[azaGly]L[Arg(Me)]F-NH2 [Compound No. 298: [D-Tyr1,D-Asn2,Thr5,AzaGly7,Arg(Me)9]MS10], for which the “intracellular Ca ion level-increasing activity (FLIPR)” value in test [1] was 5 specific activity to metastin (1-54). In addition, the IC50 in test [2] is 0.25 nM.

B3: Compound No. 207: [D-Tyr1,Ser4,Arg(Me)9]MS10 (peptide)
peptide: [dY]NWSSFGL[Arg(Me)]F-NH2
modifications: N-terminus assumed
SMILES: CNC(=N)NCCC[C@H](NC(=O)[C@H](CC(C)C)NC(=O)CNC(=O)[C@H](Cc1ccccc1)NC(=O)[C@H](CO)NC(=O)[C@H](CO)NC(=O)[C@H](Cc1c[nH]c2ccccc12)NC(=O)[C@H](CC(N)=O)NC(=O)[C@H](N)Cc1ccc(O)cc1)C(=O)N[C@@H](Cc1ccccc1)C(N)=O
Consider B3, for which the intracellular Ca ion level-increasing activity (FLIPR) (specific activity to metastin (1-54)) in test [3] was determined as 0.5. Still for that read-out and setting: as for YNWFGLRF-NH2 [Compound No. 88: des(4-5)-MS10], the figure is 1; as for YNWNSFGL[Lys(Me2)]F-NH2 [Compound No. 98: [Lys(Me2)9]MS10], 0.5.

B4: Compound No. 173: [D-Tyr1,Ala7,Arg(Me)9]MS10 (peptide)
peptide: [dY]NWNSFAL[Arg(Me)]F-NH2
modifications: N-terminus assumed
SMILES: CNC(=N)NCCC[C@H](NC(=O)[C@H](CC(C)C)NC(=O)[C@H](C)NC(=O)[C@H](Cc1ccccc1)NC(=O)[C@H](CO)NC(=O)[C@H](CC(N)=O)NC(=O)[C@H](Cc1c[nH]c2ccccc12)NC(=O)[C@H](CC(N)=O)NC(=O)[C@H](N)Cc1ccc(O)cc1)C(=O)N[C@@H](Cc1ccccc1)C(N)=O
Molecule B4 gave an intracellular Ca ion level-increasing activity (FLIPR) (specific activity to metastin (1-54)) in test [3] of 1.

B5: Compound No. 314: [Orn9]MS10 (peptide)
peptide: YNWNSFGL[Orn]F-NH2
modifications: N-terminus assumed
SMILES: CC(C)C[C@H](NC(=O)CNC(=O)[C@H](Cc1ccccc1)NC(=O)[C@H](CO)NC(=O)[C@H](CC(N)=O)NC(=O)[C@H](Cc1c[nH]c2ccccc12)NC(=O)[C@H](CC(N)=O)NC(=O)[C@@H](N)Cc1ccc(O)cc1)C(=O)N[C@@H](CCCN)C(=O)N[C@@H](Cc1ccccc1)C(N)=O
As for B5, the “intracellular Ca ion level-increasing activity (FLIPR)” value in test [1] was 1 specific activity to metastin (1-54). The IC50 in test [2] is 470 nM. Regarding [dY]NWNSFGL[Arg(Me)]F-NH2 (also: Phe6-Gly7 bond replaced by NHCO (retro-inverso)) [Compound No. 319: [6Ψ7,NHCO,D-Tyr1,Arg(Me)9]MS10], the “intracellular Ca ion level-increasing activity (FLIPR)” value in test [1] is 3 specific activity to metastin (1-54).

B6: Compound No. 301: [D-Tyr1,Ala(2-Qui) 3,AzaGly7,Arg(Me)9]MS10 (peptide)
peptide: [dY]N[Ala(2-Qui)]NSF[azaGly]L[Arg(Me)]F-NH2
modifications: N-terminus assumed
SMILES: CNC(=N)NCCC[C@H](NC(=O)[C@H](CC(C)C)NC(=O)NNC(=O)[C@H](Cc1ccccc1)NC(=O)[C@H](CO)NC(=O)[C@H](CC(N)=O)NC(=O)[C@H](Cc1ccc2ccccc2n1)NC(=O)[C@H](CC(N)=O)NC(=O)[C@H](N)Cc1ccc(O)cc1)C(=O)N[C@@H](Cc1ccccc1)C(N)=O
Regarding B6, the “intracellular Ca ion level-increasing activity (FLIPR)” value in test [1] is 1 specific activity to metastin (1-54). The same molecule displayed an IC50 in test [2] of 15 nM.

For the molecule YNWNSFGLXF (Nar(Me)9; C-terminal amide) [Compound No. 311: [Nar(Me)9]MS10], the “intracellular Ca ion level-increasing activity (FLIPR)” value in test [1] is 1 specific activity to metastin (1-54). The half-maximal inhibitory concentration (IC50) in test [2] was found to be 470 nM. The like results for [dY]N[d4Pal]NSF[azaGly]L[Arg(Me)]F-NH2 [Compound No. 302: [D-Tyr1,D-Pya(4) 3,AzaGly7,Arg(Me)9]MS10] were, in that order, 2 specific activity to metastin (1-54) and 7.7 nM.

B7: Compound No. 306: [D-Pya(4)1,D-Asn2,Cha3,AzaGly7,Arg(Me)9]MS10 (peptide)
peptide: [d4Pal][dN][Cha]NSF[azaGly]L[Arg(Me)]F-NH2
modifications: N-terminus assumed
SMILES: CNC(=N)NCCC[C@H](NC(=O)[C@H](CC(C)C)NC(=O)NNC(=O)[C@H](Cc1ccccc1)NC(=O)[C@H](CO)NC(=O)[C@H](CC(N)=O)NC(=O)[C@H](CC1CCCCC1)NC(=O)[C@@H](CC(N)=O)NC(=O)[C@H](N)Cc1ccncc1)C(=O)N[C@@H](Cc1ccccc1)C(N)=O
On to B7, for which, in test [1], the “intracellular Ca ion level-increasing activity (FLIPR)” value was 2 specific activity to metastin (1-54). For the same molecule, in test [2], the IC50 is 4.4 nM.

Regarding {4‑Imidazoleacetyl}-NSF[azaGly]L[Arg(Me)]F-NH2 [Compound No. 323: des(1-3)-4-Imidazoleacetyl-[AzaGly7,Arg(Me)9]MS10], the “intracellular Ca ion level-increasing activity (FLIPR)” value in test [1] was 1 specific activity to metastin (1-54). The same molecule showed a concentration for half-maximal inhibition (IC50) in test [2] of 280 nM. In turn, KNWNSFGLRF-NH2 [Compound No. 76: [Lys1]MS10] showed an intracellular Ca ion level-increasing activity (FLIPR) (specific activity to metastin (1-54)) in test [3] of 1.

B8: Compound No. 296: [6Ψ7,CSNH,D-Tyr1,Arg(Me)9]MS10 (peptide)
peptide: [dY]NWNSFGL[Arg(Me)]F-NH2
modifications: also: Phe6-Gly7 thioamide (CSNH)
notes: also called [6y7,CSNH,D-Tyr1,Arg(Me)9]MS10
In the case of B8, the “intracellular Ca ion level-increasing activity (FLIPR)” value in test [1] was 3 specific activity to metastin (1-54). In test [2], the IC50 worked out at 14 nM. Regarding Fmoc-NSFGL[Arg(Me)]F-NH2 [Compound No. 144: des(1-3)-Fmoc-[Arg(Me)9]MS10], in test [4], the “intracellular Ca ion level-increasing activity (FLIPR)” value was 1 specific activity to metastin (1-54). As to YNWNSFGLXF (Nar9; C-terminal amide) [Compound No. 310: [Nar9]MS10], the “intracellular Ca ion level-increasing activity (FLIPR)” value in test [1] is 3 specific activity to metastin (1-54). The IC50 in test [2] worked out at 310 nM. For the molecule YKWNSFGLRF-NH2 [Compound No. 56: [Lys2]MS10], the intracellular Ca ion level-increasing activity (FLIPR) (specific activity to metastin (1-54)) in test [3] was determined as 1.

B9: Compound No. 87: des(4-5)-Boc-MS10 (peptide)
peptide: Boc-YNWFGLRF-NH2
SMILES: CC(C)C[C@H](NC(=O)CNC(=O)[C@H](Cc1ccccc1)NC(=O)[C@H](Cc1c[nH]c2ccccc12)NC(=O)[C@H](CC(N)=O)NC(=O)[C@H](Cc1ccc(O)cc1)NC(=O)OC(C)(C)C)C(=O)N[C@@H](CCCNC(=N)N)C(=O)N[C@@H](Cc1ccccc1)C(N)=O
In turn, B9 returned an intracellular Ca ion level-increasing activity (FLIPR) (specific activity to metastin (1-54)) in test [3] of 1. Take YNWNSFGLXF (Har(Me)9; C-terminal amide) [Compound No. 312: [Har(Me)9]MS10]: the “intracellular Ca ion level-increasing activity (FLIPR)” value in test [1] was 3 specific activity to metastin (1-54). In test [2], this molecule showed an IC50 of 100 nM.

B10: Compound No. 209: [D-Tyr1,Gln4,Arg(Me)9]MS10 (peptide)
peptide: [dY]NWQSFGL[Arg(Me)]F-NH2
modifications: N-terminus assumed
SMILES: CNC(=N)NCCC[C@H](NC(=O)[C@H](CC(C)C)NC(=O)CNC(=O)[C@H](Cc1ccccc1)NC(=O)[C@H](CO)NC(=O)[C@H](CCC(N)=O)NC(=O)[C@H](Cc1c[nH]c2ccccc12)NC(=O)[C@H](CC(N)=O)NC(=O)[C@H](N)Cc1ccc(O)cc1)C(=O)N[C@@H](Cc1ccccc1)C(N)=O
The molecule B10 yielded an intracellular Ca ion level-increasing activity (FLIPR) (specific activity to metastin (1-54)) in test [3] of 0.5.
